For two proteins, Km, kcat and kcat/Km results are on record in article PMC2963697.

Substrate in series [1]: C=CC=C(O)C(=O)O
In words: UV spectrophotometric tautomerase assay, steady state. Format: biochemical, Archaeoglobus fulgidus. As to conditions: reaction 3 -> 6, 20 mM sodium phosphate, pH 7.3, 23 °C.

Substrate in series [2]: C=CC=C(O)C(=O)O
Described as above. Format: biochemical, Helicobacter pylori. As to conditions: reaction 3 -> 6, 20 mM sodium phosphate, pH 7.3, 23 °C.

B1: AfDmpI (Archaeoglobus fulgidus DSM 4304) (protein)
chain: PVLIVYGPKLDVGKKREFVERLTSVAAEIYGMDRSAITILIHEPPAENVGVGGKLIADRERE
Broadly, the Km is the concentration of substrate that gives half-maximal velocity. In general, kcat refers to the number of substrate molecules converted per active site and unit of time at saturation. Usually kcat/Km stands for the second-order rate constant that governs catalysis at low substrate concentration. Consider B1, for which, in series [1], the Michaelis-Menten constant (Km) worked out at 90 ± 30 µM, the kcat is 0.1 ± 0.02 s⁻¹ and the kcat/Km amounted to 1100 M⁻¹ s⁻¹.

B2: HpDmpI (Helicobacter pylori 26695) (protein)
chain: PFINIKLVPENGGPTNEQKQQLIEGVSDLMVKVLNKNKASIVVIIDEVDSNNYGLGGESVHHLRQKN
As to B2, in series [2], the Km amounted to 190 ± 40 µM, the turnover number (kcat) was determined as 2.5 ± 0.3 s⁻¹ and the catalytic efficiency (kcat/Km) was determined as 13000 M⁻¹ s⁻¹.
